According to patent EP4471049A1 (Zealand Pharma A/S, priority 2023, dated 2024):
*1 amine or outer side, *2 acyl side, *3 side chain or, on linkers, in order; H or OH if unused. Where a SMILES comes first, the peptide text is derived from it. Bridges are numbered along the chain shown (N, C = ends). Primed or numbered codes have the meaning given here. Where no end group is shown, it is not given here. [ ]: non-standard residue; d: D form. 4‑Aminomethyl‑phenylacetyl = 4-aminomethyl-phenylacetyl unit, its amine closes the lactam, O=C(Cc1ccc(CN[*:1])cc1)[*:2]; Q(pyrrolidin)(3) = Gln whose side-chain amide N is in a pyrrolidine ring, O=C(CC[C@H](N[*:1])C(=O)[*:2])N1CCCC1; 2Nal = N[C@@H](Cc1ccc2ccccc2c1)C(=O)O; AEF = NCCOc1ccc(C[C@H](N)C(=O)O)cc1; X1 = O=C(Cc1ccc(CN[*:1])cc1)[*:2]; 3Pal = N[C@@H](Cc1cccnc1)C(=O)O; Cit = NC(=O)NCCC[C@H](N)C(=O)O; αMeL = CC(C)C[C@](C)(N)C(=O)O; NMeS = CN[C@@H](CO)C(=O)O; Orn = NCCC[C@H](N)C(=O)O; Q(Me) = not defined here; Dab = NCC[C@H](N)C(=O)O; βAla = NCCC(=O)O

T1: human IL-23R (Homo sapiens, UniProt Q5VWK5)
T1 sequence (Q5VWK5 22-629): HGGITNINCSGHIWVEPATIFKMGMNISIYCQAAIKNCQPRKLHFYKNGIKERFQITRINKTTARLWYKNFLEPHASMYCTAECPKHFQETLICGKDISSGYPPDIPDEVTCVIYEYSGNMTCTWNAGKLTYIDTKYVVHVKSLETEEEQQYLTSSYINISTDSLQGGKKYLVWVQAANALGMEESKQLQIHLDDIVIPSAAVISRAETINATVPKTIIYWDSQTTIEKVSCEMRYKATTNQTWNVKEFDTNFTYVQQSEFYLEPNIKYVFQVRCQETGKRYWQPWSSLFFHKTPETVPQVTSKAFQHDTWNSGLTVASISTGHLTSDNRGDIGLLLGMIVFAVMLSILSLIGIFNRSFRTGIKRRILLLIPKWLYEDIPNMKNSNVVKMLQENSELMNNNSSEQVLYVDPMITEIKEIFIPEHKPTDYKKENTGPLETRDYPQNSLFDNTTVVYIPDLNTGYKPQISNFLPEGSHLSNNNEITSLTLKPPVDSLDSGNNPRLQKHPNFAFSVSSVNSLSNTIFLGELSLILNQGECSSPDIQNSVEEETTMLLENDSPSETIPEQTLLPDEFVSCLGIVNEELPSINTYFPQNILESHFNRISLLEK

T2: Nluc-IL23R fusion protein (human, UniProt Q5VWK5 22-629)
T2 construct: range 22-629; expressed with a secretion signal in HEK293 cells; used as crude membrane preparation; also called hIL-23R; human IL-23R; not shown: Nanoluc protein from the expression plasmid N1371 (Promega), N-terminal of IL-23R
T2 sequence (looked up): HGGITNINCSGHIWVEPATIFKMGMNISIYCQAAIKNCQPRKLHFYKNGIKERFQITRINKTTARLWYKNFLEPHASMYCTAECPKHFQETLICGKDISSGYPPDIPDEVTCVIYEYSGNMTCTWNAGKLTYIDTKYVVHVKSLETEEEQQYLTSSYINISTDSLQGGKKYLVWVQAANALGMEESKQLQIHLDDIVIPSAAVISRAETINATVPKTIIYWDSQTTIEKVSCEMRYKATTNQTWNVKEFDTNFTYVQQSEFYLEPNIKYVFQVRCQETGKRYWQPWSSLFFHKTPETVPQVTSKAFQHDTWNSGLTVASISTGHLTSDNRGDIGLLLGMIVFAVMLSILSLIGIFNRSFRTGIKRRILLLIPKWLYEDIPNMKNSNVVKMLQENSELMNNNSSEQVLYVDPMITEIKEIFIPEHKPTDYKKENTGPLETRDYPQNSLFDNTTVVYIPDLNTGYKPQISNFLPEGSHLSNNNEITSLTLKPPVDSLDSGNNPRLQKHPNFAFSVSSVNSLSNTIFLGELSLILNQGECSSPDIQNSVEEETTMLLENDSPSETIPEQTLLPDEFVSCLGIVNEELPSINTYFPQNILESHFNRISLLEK


Columns and labels:
[1] = Peptide stability in simulated intestinal fluid (SIF); assay type: in vitro ADME; conditions: pig, simulated intestinal fluid (SIF) with porcine pancreatin, 37 °C, pH 6.8, porcine pancreatin 10 g/L, 10 µM; for remaining at 4 h, 10 µM: read-out: SIF (% remaining 4 h)
Description: SGF was prepared by dissolving sodium chloride (0.2 g) in 50 mL of water. A volume of 0.7 mL of 10 M HCl was added to adjust the pH of the solution to 1.2 and the volume made up to 100 mL with water. […] SIF was prepared by dissolving monobasic potassium phosphate (0.68 g) in 50 mL of water and adjusting the pH to 6.8 with 1 M NaOH. The volume was subsequently made up to 100 mL with water. 200 mg porcine pancreatin (P1625, Sigma Aldrich) was gently dissolved into 20 mL preheated (37 °C) solution (10 g/L) immediately prior to the incubation.
The incubation was performed at 37 °C with gentle shaking. […] After the last timepoint, the sampling plate was mixed for 10 min on a shaking table and centrifuged 10 min at 2200 g. 70 µL resulting supernatant was diluted with 150 µL water, mixed and centrifugated before analysis by liquid chromatography high resolution mass spectrometry. […] Percent remaining at each timepoint was calculated relative to timepoint zero based on absolute peak areas.
Compounds with a SIF stability (after 4 h) above 70% are considered highly SIF stable.

[2] = target: T1, human IL-23R; assay: biochemical
Method in brief: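 BRET displacement of a TAMRA-labelled reference compound from N-terminal Nanoluc-IL-23R fusion protein in membranes from stably transfected HEK293 cells. Incubation 2 h at room temperature, then Nanoluc substrate was added and the TAMRA/Nanoluc ratio read. IC50 and maximal displacement came from 4-parameter logistic fits.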

[3] = target: T2, Nluc-IL23R fusion protein; assay: BRET competition vs TAMRA-labelled peptide, Nluc-IL23R membranes

% displacement (hIL-23R binding) [3] | Molecule | further results
– | CNC(=O)[C@H](Cc1cccnc1)NC(=O)[C@H](CO)NC(=O)[C@@H]1CCC(=O)NCc2ccc(cc2)CC(=O)N[C@@H](CO)C(=O)N[C@H]2CCC(=O)NCC[C@H](NC(=O)[C@H](CCC(N)=O)NC(=O)[C@H](Cc3c[nH]c4ccccc34)NC2=O)C(=O)N[C@@H](Cc2ccc(OCCN)cc2)C(=O)N[C@@H](Cc2ccc3ccccc3c2)C(=O)N[C@@](C)(CC(C)C)C(=O)N1 [Compound 31, [4-Aminomethyl-phenylacetyl](1c)*SE(2c)WQ[Dab](2c)[Y(2-aminoethoxy)][2-Nal][2-Me-Leu]E(1c)S[3-(3-Pyridyl)-Ala]-[NHMe]] ([X1]SEWQ[Dab][AEF][2Nal][αMeL]ES[3Pal]-NHMe; lactam 3-6, N-10) | remaining at 4 h, 10 µM [1]: 41%; % displacement (hIL-23R binding) [2]: 97%; IC50 [2]: 0.012 nM
– | CNC(=O)[C@H](Cc1cccnc1)NC(=O)[C@H](CCN)NC(=O)[C@@H]1CCC(=O)NCc2ccc(cc2)CC(=O)N[C@@H](C)C(=O)N[C@H]2CCC(=O)NCC[C@H](NC(=O)[C@H](CCC(N)=O)NC(=O)[C@H](Cc3c[nH]c4ccccc34)NC2=O)C(=O)N[C@@H](CCc2ccccc2)C(=O)N[C@@H](Cc2ccc3ccccc3c2)C(=O)NC(C)(C)C(=O)N1 [Compound 41, [4-Aminomethyl-phenylacetyl](1c)*AE(2c)WQ[Dab](2c)[hPhe][2-Nal][Aib]E(1c)[Dab][3-(3-Pyridyl)-Ala]-[NHMe]] | remaining at 1 h, 10 µM ([1]; 1 h): 100%; remaining at 4 h, 10 µM [1]: 95%; % displacement (hIL-23R binding) [2]: 104%; IC50 [2]: 0.28 nM
105% | [βAla][3Pal]SCWQC[AEF][2Nal][αMeL]E[dR]-NH2 (lactam N-11; linker 4-7 via 1,3‑dithio‑propan‑2‑one) [Compound 1] | –
90% | [4‑Aminomethyl‑phenylacetyl]SEWQ[Dab][AEF][2Nal][αMeL]EH[3Pal]-NHMe (lactam N-10, 3-6; SMILES CNC(=O)[C@H](Cc1cccnc1)NC(=O)[C@H](Cc1c[nH]cn1)NC(=O)[C@@H]1CCC(=O)NCc2ccc(cc2)CC(=O)N[C@@H](CO)C(=O)N[C@H]2CCC(=O)NCC[C@H](NC(=O)[C@H](CCC(N)=O)NC(=O)[C@H](Cc3c[nH]c4ccccc34)NC2=O)C(=O)N[C@@H](Cc2ccc(OCCN)cc2)C(=O)N[C@@H](Cc2ccc3ccccc3c2)C(=O)N[C@@](C)(CC(C)C)C(=O)N1) [Compound 34] | –
95% | [4‑Aminomethyl‑phenylacetyl]SEW[Cit][Dab][AEF][2Nal][αMeL]E[Dab][3Pal]-NHMe (lactam (positions not given here); lactam 3-6; not fully specified (bridges)) [Compound 26] | –
104% | [4‑Aminomethyl‑phenylacetyl]SEW[Q(2Me)][Dab][AEF][2Nal][αMeL]E[Dab][3Pal]-NHMe (lactam N-10, 3-6) [Compound 30] | –
97% | [4‑Aminomethyl‑phenylacetyl]SEWK(Ac)[Dab][AEF][2Nal][αMeL]E[Dab][3Pal]-NHMe (lactam N-10, 3-6; SMILES CNC(=O)[C@H](Cc1cccnc1)NC(=O)[C@H](CCN)NC(=O)[C@@H]1CCC(=O)NCc2ccc(cc2)CC(=O)N[C@@H](CO)C(=O)N[C@H]2CCC(=O)NCC[C@H](NC(=O)[C@H](CCCCNC(C)=O)NC(=O)[C@H](Cc3c[nH]c4ccccc34)NC2=O)C(=O)N[C@@H](Cc2ccc(OCCN)cc2)C(=O)N[C@@H](Cc2ccc3ccccc3c2)C(=O)N[C@@](C)(CC(C)C)C(=O)N1) [Compound 24] | –
97% | [4‑Aminomethyl‑phenylacetyl]SEW[Q(pyrrolidin)(3)][Dab][AEF][2Nal][αMeL]E[Dab][3Pal]-NHMe (lactam N-10, 3-6) [Compound 27] | IC50 [3]: 0.017 nM
100% | [4‑Aminomethyl‑phenylacetyl]AEWQ[Dab][AEF][2Nal][αMeL]ES[3Pal]-NHMe (lactam N-10, 3-6; SMILES CNC(=O)[C@H](Cc1cccnc1)NC(=O)[C@H](CO)NC(=O)[C@@H]1CCC(=O)NCc2ccc(cc2)CC(=O)N[C@@H](C)C(=O)N[C@H]2CCC(=O)NCC[C@H](NC(=O)[C@H](CCC(N)=O)NC(=O)[C@H](Cc3c[nH]c4ccccc34)NC2=O)C(=O)N[C@@H](Cc2ccc(OCCN)cc2)C(=O)N[C@@H](Cc2ccc3ccccc3c2)C(=O)N[C@@](C)(CC(C)C)C(=O)N1) [Compound 40] | –
92% | [4‑Aminomethyl‑phenylacetyl]SEWQ[Dab][AEF][2Nal][αMeL]EQ[3Pal]-NHMe (lactam N-10, 3-6; SMILES CNC(=O)[C@H](Cc1cccnc1)NC(=O)[C@H](CCC(N)=O)NC(=O)[C@@H]1CCC(=O)NCc2ccc(cc2)CC(=O)N[C@@H](CO)C(=O)N[C@H]2CCC(=O)NCC[C@H](NC(=O)[C@H](CCC(N)=O)NC(=O)[C@H](Cc3c[nH]c4ccccc34)NC2=O)C(=O)N[C@@H](Cc2ccc(OCCN)cc2)C(=O)N[C@@H](Cc2ccc3ccccc3c2)C(=O)N[C@@](C)(CC(C)C)C(=O)N1) [Compound 33] | –
97% | [4‑Aminomethyl‑phenylacetyl]SEWQ[Dab][AEF][2Nal][αMeL]ES[3Pal]-NHMe (lactam N-10, 3-6) [Compound 31] | –
93% | [4‑Aminomethyl‑phenylacetyl]SEW[Dab](Ac)[Dab][AEF][2Nal][αMeL]E[Dab][3Pal]-NHMe (lactam (positions not given here); lactam 3-6; not fully specified (bridges)) [Compound 25] | IC50 [3]: 0.011 nM
97% | [4‑Aminomethyl‑phenylacetyl]SEW[Orn][Dab][AEF][2Nal][αMeL]E[Dab][3Pal]-NHMe (lactam N-10, 3-6; SMILES CNC(=O)[C@H](Cc1cccnc1)NC(=O)[C@H](CCN)NC(=O)[C@@H]1CCC(=O)NCc2ccc(cc2)CC(=O)N[C@@H](CO)C(=O)N[C@H]2CCC(=O)NCC[C@H](NC(=O)[C@H](CCCN)NC(=O)[C@H](Cc3c[nH]c4ccccc34)NC2=O)C(=O)N[C@@H](Cc2ccc(OCCN)cc2)C(=O)N[C@@H](Cc2ccc3ccccc3c2)C(=O)N[C@@](C)(CC(C)C)C(=O)N1) [Compound 28] | IC50 [3]: 0.011 nM
96% | [4‑Aminomethyl‑phenylacetyl]SEW[Q(Me)][Dab][AEF][2Nal][αMeL]E[Dab][3Pal]-NHMe (lactam N-10, 3-6; reading uncertain) [Compound 29] | IC50 [3]: 0.011 nM
102% | [4‑Aminomethyl‑phenylacetyl][NMeS]CWQC[AEF][2Nal][αMeL]E[Dab]-NH2 (lactam N-10; bridge 3-6; not fully specified (bridges); printed as [4-Aminomethyl-phenylacetyl](1c)*[N-Me-Ser]C(2a)WQC(2a)[Y(2-aminoethoxy)][2-Nal][2-Me-Leu]E(1c)[Dab]-[NH2]) [Ref 141] | –
